Positions count from the first letter of the chain named.
B1: J1-183D (antibody, V domains shown)
VH: QVQLQQPGTELVRPGVSVKISCKVSGYAFTDYAIHWIMQSHAKSLEWIGIINTYYGDSKYNQKFKDKATMTVDKSSNTAYMELARLTSEDSAIYYCARGYDGFAYWGQGTLVTVSS
VL: DIQLTQSPASLSASVGETVTFTCRTSENIYSYLTWYQQKQGKSPQLLVYNAKILAAGVPSRFSGYGSGTQFSLKINSLQPEDFGTYYCQHHYDIPWTFGGGTKLEIK
B2: J1-65D (antibody, V domains shown)
VH: QVQLQQPGAELVRPGASVKLSCKALGYTFTDYEMHWVKETPVHGLEWIGAIQPGGGGTAYNQKFKGKATLTADKSSSTAYMELSSLTSEDSAVYYCTRRGYDDYPFAYWGQGTLVTVSS
VL: DIQLTQSPASLSASVGETVTITCRASGNIHNYLAWYQQKQGKSPQLLVYNAKTLADDIPSRFSGSGSGTQYSLKINSLQPEDFGSYYCQHFWSAPWTFGGGTKLEIK
B3: J1-65D variant 3 (antibody, human IgG1, V domains shown)
VH: QVQLVQSGAEVKKPGSSVKVSCKASGYTFTDYEMHWVRQAPGQGLEWMGAIQPGGGGTAYAQKFQGRVTLTADKSTSTAYMELSSLRSEDTAVYYCTRRGYDDYPFAYWGQGTLVTVSS
VL: DIQMTQSPSSLSASVGDRVTITCRASGNIHNYLAWYQQKPGKAPKLLIYNAKTLADDVPSRFSGSGSGTDYTLTISSLQPEDFATYYCQHFWSAPWTFGGGTKLEIKR
notes: human IgG1; also called J1-65DV3; V3
B4: J1-65D variant 7 (antibody, human IgG1, V domains shown)
VH: B3 VH
VL: B3 VL with D57A
notes: human IgG1; also called J1-65DV7; V7
B5: J1-65D variant 12 (antibody, human IgG1, V domains shown)
VH: B3 VH with L70I
VL: B3 VL with D57A, G100Q
notes: human IgG1; also called J1-65DV12; V12
B6: J1-65D variant 11 (antibody, human IgG1, V domains shown)
VH: B3 VH
VL: B3 VL with D57A, G100Q
notes: human IgG1; also called J1-65DV11; V11
B7: J1-65D variant 4 (antibody, human IgG1, V domains shown)
VH: B3 VH with L70I
VL: B3 VL
notes: human IgG1; also called J1-65DV4; V4
B8: J1-65D variant 10 (antibody, human IgG1, V domains shown)
VH: B3 VH with V11L, Q65K
VL: B3 VL with D57A, G100Q
notes: human IgG1; also called J1-65DV10; V10
B9: J1-65D variant 5 (antibody, human IgG1, V domains shown)
VH: B3 VH with V11L, A61N, Q65K
VL: B3 VL with D57A
notes: human IgG1; also called J1-65DV5; V5
B10: J1-65D variant 8 (antibody, human IgG1, V domains shown)
VH: B3 VH with L70I
VL: B3 VL with D57A
notes: human IgG1; also called J1-65DV8; V8
B11: J1-65D variant 9 (antibody, human IgG1, V domains shown)
VH: B3 VH with V11L, A61N, Q65K
VL: B3 VL with D57A, G100Q
notes: human IgG1; also called J1-65DV9; V9

target: T1, J1 DSL-EGF3 soluble recombinant protein (human Jagged 1 amino acids 185-335) (human, UniProt P78504 185-335); test: SPR (Biacore), mAb immobilised, J1 protein in flow
T1 construct: biotinylated in the CD46 ELISA; also called J1-DE3; DSL+EGF1-3
T1 sequence (P78504 185-335, form in doubt): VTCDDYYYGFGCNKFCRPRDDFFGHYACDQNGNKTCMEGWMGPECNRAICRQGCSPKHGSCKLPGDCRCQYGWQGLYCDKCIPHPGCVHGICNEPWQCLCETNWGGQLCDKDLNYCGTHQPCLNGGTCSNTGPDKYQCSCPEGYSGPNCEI

Q: How did the Kd turn out when B1 was run?
A: Its Kd is 4.9 nM.

Q: With B2 as the binder, how does the Kd read?
A: Its Kd is 9.7 nM.

target: T2, J1-NE3 (human Jagged 1, entire N-terminus until the third EGF domain) (human, UniProt P78504 32-335, limits assumed); test: SPR (Biacore), mAb immobilised, J1 protein in flow
T2 construct: domain: entire N-terminus until the third EGF domain; eukaryotically expressed soluble form used in SPR

Q: B1 was tested. Which Kd did it give?
A: The Kd was 5.2 nM.

Q: How did the Kd turn out when B2 was run?
A: Its Kd is 3.3 nM.

target: T3, J1-NE12 (human Jagged 1, entire N-terminus to EGF12) (human, UniProt P78504 32-703); test: SPR (Biacore), mAb immobilised, J1 protein in flow
T3 construct: domain: entire N-terminus to EGF12; eukaryotically expressed soluble form used in SPR

Q: For B1, which Kd is on record?
A: Its Kd is 4.4 nM.

Q: B2 was tested. Which Kd did it give?
A: The Kd was 3 nM.

target: T1, J1 DSL-EGF3 soluble recombinant protein …; test: affinity to the immunogen J1-DE3; method not stated

Q: Which Kd does the source give for B1 here?
A: Its Kd is 0.58 nM.

Q: With B3 as the binder, how does the Kd read?
A: The Kd was 0.158 nM.

Q: Which Kd does the source give for B4 here?
A: The Kd was 0.151 nM.

Q: For B5, which Kd is on record?
A: Its Kd is 0.0806 nM.

Q: How did the Kd turn out when B6 was run?
A: The Kd was 0.243 nM.

Q: How did the Kd turn out when B7 was run?
A: Its Kd is 0.0949 nM.

Q: For B8, which Kd is on record?
A: The Kd was 0.293 nM.

Q: For B9, which Kd is on record?
A: Its Kd is 0.0446 nM.

Q: How did the Kd turn out when B10 was run?
A: The Kd was 0.0717 nM.

Q: B11 was tested. Which Kd did it give?
A: The Kd was 0.0139 nM.

Q: With B2 as the binder, how does the Kd read?
A: The Kd was 0.13 nM.

target: T4, human Jagged 1, full length, on cells (human, UniProt P78504 34-1218); test: FACS competition, HEK293-J1 cells, against biotinylated J1-65D 1.0 µg/ml
T4 construct: whole, on cells; the cell is named under assay; also called hJ1; J1
T4 sequence (P78504 34-1218): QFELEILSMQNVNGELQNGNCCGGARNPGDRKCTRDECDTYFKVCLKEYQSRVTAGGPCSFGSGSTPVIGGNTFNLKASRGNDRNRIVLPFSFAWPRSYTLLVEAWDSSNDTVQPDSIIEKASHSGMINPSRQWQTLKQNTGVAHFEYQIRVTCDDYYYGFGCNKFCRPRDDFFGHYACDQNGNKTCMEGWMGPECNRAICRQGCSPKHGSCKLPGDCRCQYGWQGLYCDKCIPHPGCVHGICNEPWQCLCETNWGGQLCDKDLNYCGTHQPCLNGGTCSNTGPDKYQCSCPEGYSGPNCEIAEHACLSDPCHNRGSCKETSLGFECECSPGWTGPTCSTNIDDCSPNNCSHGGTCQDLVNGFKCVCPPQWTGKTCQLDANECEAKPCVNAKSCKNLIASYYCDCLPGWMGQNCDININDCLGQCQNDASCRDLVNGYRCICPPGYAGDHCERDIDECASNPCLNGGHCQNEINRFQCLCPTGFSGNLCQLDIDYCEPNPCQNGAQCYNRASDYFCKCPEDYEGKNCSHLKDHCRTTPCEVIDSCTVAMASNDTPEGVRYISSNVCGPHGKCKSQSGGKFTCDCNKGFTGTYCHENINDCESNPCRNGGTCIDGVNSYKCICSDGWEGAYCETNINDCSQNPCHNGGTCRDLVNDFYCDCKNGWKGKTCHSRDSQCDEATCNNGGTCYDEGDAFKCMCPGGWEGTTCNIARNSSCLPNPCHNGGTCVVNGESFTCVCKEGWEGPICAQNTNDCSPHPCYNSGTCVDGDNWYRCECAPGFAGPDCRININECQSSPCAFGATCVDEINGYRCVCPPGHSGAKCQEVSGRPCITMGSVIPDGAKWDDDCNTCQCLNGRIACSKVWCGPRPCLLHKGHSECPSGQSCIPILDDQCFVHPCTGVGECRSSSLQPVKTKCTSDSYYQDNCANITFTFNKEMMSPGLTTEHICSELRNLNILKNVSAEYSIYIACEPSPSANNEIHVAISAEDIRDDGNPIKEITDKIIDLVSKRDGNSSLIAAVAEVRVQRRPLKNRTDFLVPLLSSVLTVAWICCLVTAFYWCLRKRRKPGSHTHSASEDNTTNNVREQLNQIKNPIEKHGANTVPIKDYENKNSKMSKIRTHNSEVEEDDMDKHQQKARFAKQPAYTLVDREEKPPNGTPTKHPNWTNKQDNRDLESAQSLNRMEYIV

Q: Which “IC50 (read off the curve)” value does the source give for B2 here?
A: The value was ~1 µg/mL.

target: T4, human Jagged 1, full length, on cells; test: FACS competition, HEK293-J1 cells, against biotinylated J1-187B 1.0 µg/ml

Q: With B2 as the binder, how does the “IC50 (read off the curve)” value read?
A: Its value is ~0.5 µg/mL.

target: T5, murine Jagged 1, full length, on B16F10 cells (mouse, UniProt Q9QXX0 34-1218); test: FACS, B16F10-mJAG1 cells, anti-human-APC
T5 construct: whole, on cells; GFP co-expressed; also called mJ1; B16F10-mJAG1
Description: FIG. 19. […] Samples were analysed by FACS and the mean fluorescence intensities (MFI) were plotted.
(§1) HEK293 cells transfected with human J1, J2 or FLAG-EGFP-tagged DSL-EGF3 constructs, B16F10 cells transfected with human DLL4 or mouse J1, and human cancer cell lines, were stained with either purified anti-J1 antibodies at 10 μg/ml diluted in FACS wash buffer (2% FBS in PBS+0.1% sodium azide) or neat hybridoma supernatants followed by a allophycocyanin (APC)-conjugated secondary antibody at 1:200 dilution: for murine primary antibodies, used goat anti-mouse-APC (eBioscience); for humanised and chimeric antibodies used goat anti-human IgG (H+L) secondary antibody (Jackson ImmunoResearch Laboratories). After washing, samples were fixed with 1% paraformaldehyde (in PBS) and acquired with a FACSCalibur. FACS data were analysed with FlowJo software (TreeStar Inc.).

T5 sequence (Q9QXX0 34-1218, one chain of several): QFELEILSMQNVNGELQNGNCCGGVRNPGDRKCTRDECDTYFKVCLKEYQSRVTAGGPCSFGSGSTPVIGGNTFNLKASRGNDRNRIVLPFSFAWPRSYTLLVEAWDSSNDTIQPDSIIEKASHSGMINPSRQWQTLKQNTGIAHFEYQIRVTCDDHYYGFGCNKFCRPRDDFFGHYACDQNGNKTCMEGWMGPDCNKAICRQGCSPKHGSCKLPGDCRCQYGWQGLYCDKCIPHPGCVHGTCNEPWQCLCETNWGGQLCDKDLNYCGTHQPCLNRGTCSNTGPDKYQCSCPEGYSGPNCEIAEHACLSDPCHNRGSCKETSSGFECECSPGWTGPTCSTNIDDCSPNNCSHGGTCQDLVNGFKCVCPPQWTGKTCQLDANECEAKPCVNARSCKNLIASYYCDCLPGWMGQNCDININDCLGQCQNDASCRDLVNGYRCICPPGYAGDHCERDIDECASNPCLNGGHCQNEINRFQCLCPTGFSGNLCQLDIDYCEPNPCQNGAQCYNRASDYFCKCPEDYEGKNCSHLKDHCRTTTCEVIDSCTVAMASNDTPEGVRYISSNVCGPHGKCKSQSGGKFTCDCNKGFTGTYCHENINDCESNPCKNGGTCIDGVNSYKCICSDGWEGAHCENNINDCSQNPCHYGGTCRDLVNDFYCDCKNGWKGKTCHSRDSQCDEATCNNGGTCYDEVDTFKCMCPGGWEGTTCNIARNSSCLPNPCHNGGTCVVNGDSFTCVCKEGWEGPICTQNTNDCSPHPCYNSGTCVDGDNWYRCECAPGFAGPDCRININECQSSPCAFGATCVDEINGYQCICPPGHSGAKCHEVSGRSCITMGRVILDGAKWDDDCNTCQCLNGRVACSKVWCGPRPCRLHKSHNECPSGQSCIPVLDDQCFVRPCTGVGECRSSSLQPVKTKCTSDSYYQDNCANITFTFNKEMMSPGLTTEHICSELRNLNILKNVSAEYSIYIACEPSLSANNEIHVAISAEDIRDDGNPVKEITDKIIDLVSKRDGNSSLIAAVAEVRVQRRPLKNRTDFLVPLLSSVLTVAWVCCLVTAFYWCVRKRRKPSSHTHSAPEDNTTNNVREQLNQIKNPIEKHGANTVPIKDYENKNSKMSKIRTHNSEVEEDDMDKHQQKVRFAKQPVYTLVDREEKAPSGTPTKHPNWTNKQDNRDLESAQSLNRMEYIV

Q: Does B3 bind?
A: Result: no binding (tested: 10 ug/ml)

Q: Does B4 bind?
A: Result: no binding (tested: 10 ug/ml)

Q: Does B5 bind?
A: Result: no binding (tested: 10 ug/ml)

Q: Does B6 bind?
A: Result: no binding (tested: 10 ug/ml)

Q: Does B7 bind?
A: Result: no binding (tested: 10 ug/ml)

Q: Does B8 bind?
A: Result: no binding (tested: 10 ug/ml)

Q: Does B9 bind?
A: Result: no binding (tested: 10 ug/ml)

Q: Does B10 bind?
A: Result: no binding (tested: 10 ug/ml)

Q: Does B11 bind?
A: Result: no binding (tested: 10 ug/ml)

target: T4, human Jagged 1, full length, on cells; test: FACS competition, HEK293-J1 cells, against biotinylated J1-156A 1.0 µg/ml

Q: How did the “IC50 (read off the curve)” value turn out when B2 was run?
A: The value was ~0.6 µg/mL.

target: T6, human Jagged 2, full length, on HEK293 cells (human, UniProt Q9Y219 24-1238); test: FACS, 293-JAG2 cells, anti-human-APC
T6 construct: whole, on cells; also called J2; hJ2
Description: FIG. 18. […] Samples were analysed by FACS and the mean fluorescence intensities (MFI) were plotted. […] With the exception of J1-65D variants 13-16, all the remaining antibodies effectively bound the human J1 protein.
as §1

T6 sequence (Q9Y219 24-1238): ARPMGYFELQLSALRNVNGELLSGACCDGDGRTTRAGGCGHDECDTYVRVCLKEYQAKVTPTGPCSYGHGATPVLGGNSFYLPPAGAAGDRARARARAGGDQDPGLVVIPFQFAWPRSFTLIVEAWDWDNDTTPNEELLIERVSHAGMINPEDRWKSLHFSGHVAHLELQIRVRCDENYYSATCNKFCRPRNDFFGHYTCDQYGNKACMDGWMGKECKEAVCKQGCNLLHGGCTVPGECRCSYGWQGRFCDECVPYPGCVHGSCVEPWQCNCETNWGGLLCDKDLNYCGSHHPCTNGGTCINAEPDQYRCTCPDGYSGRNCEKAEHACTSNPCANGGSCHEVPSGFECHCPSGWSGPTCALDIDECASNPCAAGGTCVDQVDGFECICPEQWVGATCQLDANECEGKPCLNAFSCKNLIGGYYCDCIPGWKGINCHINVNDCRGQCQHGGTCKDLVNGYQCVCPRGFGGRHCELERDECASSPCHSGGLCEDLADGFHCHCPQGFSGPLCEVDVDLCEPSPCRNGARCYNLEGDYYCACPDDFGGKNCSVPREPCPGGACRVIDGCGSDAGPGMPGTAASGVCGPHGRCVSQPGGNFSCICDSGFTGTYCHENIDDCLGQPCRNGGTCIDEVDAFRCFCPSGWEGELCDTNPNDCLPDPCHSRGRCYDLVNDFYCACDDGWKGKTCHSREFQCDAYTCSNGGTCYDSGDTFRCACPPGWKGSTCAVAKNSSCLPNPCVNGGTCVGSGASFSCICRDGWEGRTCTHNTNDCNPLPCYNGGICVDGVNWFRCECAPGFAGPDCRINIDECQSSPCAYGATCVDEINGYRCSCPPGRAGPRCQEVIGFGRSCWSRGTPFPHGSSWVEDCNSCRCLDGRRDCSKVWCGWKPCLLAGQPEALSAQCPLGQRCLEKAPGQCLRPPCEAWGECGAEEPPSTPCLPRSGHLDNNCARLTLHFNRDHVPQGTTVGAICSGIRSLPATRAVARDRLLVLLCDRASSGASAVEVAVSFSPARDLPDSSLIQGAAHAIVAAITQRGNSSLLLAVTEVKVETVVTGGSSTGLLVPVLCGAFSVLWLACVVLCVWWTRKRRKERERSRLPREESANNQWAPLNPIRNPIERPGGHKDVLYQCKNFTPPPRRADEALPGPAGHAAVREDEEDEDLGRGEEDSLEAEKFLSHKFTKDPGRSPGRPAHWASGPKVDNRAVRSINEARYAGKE

Q: Does B3 bind?
A: Result: no binding (tested: 10 ug/ml)

Q: Does B4 bind?
A: Result: no binding (tested: 10 ug/ml)

Q: Does B5 bind?
A: Result: no binding (tested: 10 ug/ml)

Q: Does B6 bind?
A: Result: no binding (tested: 10 ug/ml)

Q: Does B7 bind?
A: Result: no binding (tested: 10 ug/ml)

Q: Does B8 bind?
A: Result: no binding (tested: 10 ug/ml)

Q: Does B9 bind?
A: Result: no binding (tested: 10 ug/ml)

Q: Does B10 bind?
A: Result: no binding (tested: 10 ug/ml)

Q: Does B11 bind?
A: Result: no binding (tested: 10 ug/ml)
